{
  "source": "paper doi:10.1101/2021.06.16.448340",
  "about": "(bioRxiv, 2021)",
  "binders": {"B1": {"name": "AscA (P20, PRSAF1) (natural protein, Corynebacterium glutamicum, UniProt Q8NP09 1-147, looked up)", "chain": "MAGSSHTIEPEIYRGVSTLDEPSAAWGWHGLKRNTIQLAGWISVLFMLGYNFGNHKGHVETIWLLVITALLVIGLLIHLFEPKLSQVRTITSRNKPVGHVEPDWTYDQATLTGTWGNLTDSQLRSVNIEPSRVAHLRAADSAKELDN"}, "B2": {"name": "QcrB, cytochrome b subunit of complex III (natural protein, Corynebacterium glutamicum, UniProt Q79VE9 1-539, looked up)", "chain": "MSLATVGNNLDSRYTMASGIRRQINKVFPTHWSFMLGEIALYSFIVLLLTGVYLTLFFDPSITKVIYDGGYLPLNGVEMSRAYATALDISFEVRGGLFIRQMHHWAALLFVVSMLVHMLRIFFTGAFRRPREANWIIGVVLIILGMAEGFMGYSLPDDLLSGVGLRIMSAIIVGLPIIGTWMHWLIFGGDFPSDLMLDRFYIAHVLIIPAILLGLIAAHLALVWYQKHTQFPGAGRTENNVIGIRIMPLFAVKAVAFGLIVFGFLALLAGVTTINAIWNLGPYNPSQVSAGSQPDVYMLWTDGAARVMPAWELYLGNYTIPAVFWVAVMLGILVVLLVTYPFIERKFTGDDAHHNLLQRPRDVPVRTSLGVMALVFYILLTVSGGNDVYAMQFHVSLNAMTWIGRIGLIVGPAIAYFITYRLCIGLQRSDREVLEHGIETGIIKQMPNGAFIEVHQPLGPVDDHGHPIPLPYAGAAVPKQMNQLGYAEVETRGGFFGPDPEDIRAKAKEIEHANHIEEANTLRALNEANIERDKNEGKN"}, "B3": {"name": "Complex III (cyt. bc1 complex) protomer, QcrA-QcrB-QcrC (complex, Corynebacterium glutamicum)", "chain 1": "MSNNNDKQYTTQELNAMSNEDLARLGTELDDVTIAYRKERFPIANDPAEKRAARAVTFWLVLGIIGGLGFLATYIFWPWEYKAHGDEGLLAYTLYTPMLGITSGLCILSLGFAVVLYVKKFIPEEIAVQRRHDGPSEEVDRRTIVALLNDSWQTSTLGRRKLIMGLAGGGAVLAGLTIIAPMGGMIKNPWNPKEGPMDVQGDGTLWTSGWTLVENDVKVYLGRDTAAIAESHTDATGEHWSTTGVSRLVRMRPEDLAAASMETVFPLPAEMVNDGAEYDPAKDVYEHQMHSVHGPRNAVMLIRLRTADAEKVIEREGQESFHYGDYYAYSKICTHIGCPTSLYEAQTNRILCPCHQSQFDALHYGKPVFGPAARALPQLPITVDEEGYLIAAGNFIEPLGPAFWERKS", "chain 2": "B2 chain", "chain 3": "MAKPSAKKVKNRRKVRRTVAGALALTIGLSGAGILATAITPDAQVATAQRDDQALISEGKDLYDVACITCHGVNLQGVEDRGPSLVGVGEGAVYFQVHSGRMPILRNEAQAERKAPRYTEAQTLAIAAYVAANGGGPGLVYNEDGTLAMEELRGENYDGQITSADVARGGDLFRLNCASCHNFTGRGGALSSGKYAPNLDAANEQEIYQAMLTGPQNMPKFSDRQLSADEKKDIIAFIKSTKETPSPGGYSLGSLGPVAEGLFMWVFGILVLVAAAMWIGSRS"}},
  "key": {"[1]": {"target": "T1, CtaD with Strep-tag, subunit I homologue of complex IV (Corynebacterium glutamicum, UniProt Q79VD7 1-584)", "T1 sequence (looked up)": "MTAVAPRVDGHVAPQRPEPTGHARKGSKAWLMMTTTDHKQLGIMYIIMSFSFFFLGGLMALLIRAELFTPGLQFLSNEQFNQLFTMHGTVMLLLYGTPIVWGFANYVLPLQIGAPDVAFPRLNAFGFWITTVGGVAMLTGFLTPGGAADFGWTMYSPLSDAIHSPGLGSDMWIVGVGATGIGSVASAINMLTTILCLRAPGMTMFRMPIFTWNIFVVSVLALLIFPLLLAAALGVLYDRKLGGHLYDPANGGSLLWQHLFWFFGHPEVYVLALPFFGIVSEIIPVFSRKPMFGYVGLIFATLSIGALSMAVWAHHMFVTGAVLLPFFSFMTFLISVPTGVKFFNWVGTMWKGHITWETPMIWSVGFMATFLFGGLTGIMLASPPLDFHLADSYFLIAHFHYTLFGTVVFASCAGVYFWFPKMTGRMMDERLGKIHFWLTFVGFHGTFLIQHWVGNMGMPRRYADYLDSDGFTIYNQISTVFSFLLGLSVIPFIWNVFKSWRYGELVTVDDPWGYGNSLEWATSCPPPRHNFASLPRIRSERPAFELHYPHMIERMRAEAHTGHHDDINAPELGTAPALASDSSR", "assay": "cryo-EM structure"}, "[2]": {"target": "B2", "assay": "cryo-EM structure"}, "[3]": {"target": "T1, CtaD with Strep-tag, subunit I …", "assay": "affinity purification with mass spectrometry"}, "cryo-EM structure": {"target": "the molecule itself", "assay": "cryo-EM structure"}},
  "data": [
    {"binder": "B1", "values": [
      {"measurement": "binding result", "setting": "[1]", "value": "binds"},
      {"measurement": "binding result", "setting": "[2]", "value": "binds"}
    ]},
    {"binder": "B2", "values": [
      {"measurement": "binding result", "setting": "[3]", "value": "binds"}
    ]},
    {"binder": "B3", "values": [
      {"measurement": "stoichiometry N", "setting": "cryo-EM structure", "value": 2}
    ]}
  ]
}
